According to patent US20160264649A1:

Tests used:
Experiment in all cases: cell-based or functional assay
[1] = molecular target: HIV-1 Env of isolate 92UG114 (subtype D) (HIV-1)
[2] = molecular target: HIV-1 Env of isolate MGRM-F1-015 (subtype F) (HIV-1)
[3] = molecular target: HIV-1 Env of isolate MGRM-D-021 (subtype D) (HIV-1)
[4] = molecular target: HIV-1 Env of isolate 92WR024 (subtype A) (HIV-1)
[5] = molecular target: HIV-1 Env of isolate 92WR021 (subtype A) (HIV-1)
[6] = molecular target: HIV-1 Env of isolate MGRM-D-012 (subtype D) (HIV-1)
[7] = molecular target: HIV-1 Env of isolate MGRM-F1-014 (subtype F) (HIV-1)
[8] = molecular target: HIV-1 Env of isolate MGRM-D-018 (subtype D) (HIV-1)
[9] = molecular target: HIV-1 Env of isolate CMU02 (subtype AE) (HIV-1)
[10] = molecular target: HIV-1 Env of isolate MGRM-D-004 (subtype D) (HIV-1)
[11] = molecular target: HIV-1 Env of isolate MGRM-D-003 (subtype D) (HIV-1)
[12] = molecular target: HIV-1 Env of isolate 92UG031 (subtype A) (HIV-1)
[13] = molecular target: HIV-1 Env of isolate MGRM-F1-016 (subtype F) (HIV-1)
[14] = molecular target: HIV-1 Env of isolate MGRM-D-028 (subtype D) (HIV-1)
[15] = molecular target: HIV-1 Env of isolate MGRM-D-011 (subtype D) (HIV-1)
[16] = molecular target: HIV-1 Env of isolate MGRM-D-029 (subtype D) (HIV-1)
[17] = molecular target: HIV-1 Env of isolate MGRM-AE-003 (subtype AE) (HIV-1)
[18] = molecular target: HIV-1 Env of isolate MGRM-F1-020 (subtype F) (HIV-1)
[19] = molecular target: HIV-1 Env of isolate MGRM-D-024 (subtype D) (HIV-1)
[20] = molecular target: HIV-1 Env of isolate MGRM-D-020 (subtype D) (HIV-1)
[21] = molecular target: HIV-1 Env of isolate MGRM-F1-010 (subtype F) (HIV-1)
[22] = molecular target: HIV-1 Env of isolate MGRM-AE-006 (subtype AE) (HIV-1)
[23] = molecular target: HIV-1 Env of isolate MGRM-AE-005 (subtype AE) (HIV-1)
[24] = molecular target: HIV-1 Env of isolate MGRM-D-008 (subtype D) (HIV-1)
[25] = molecular target: HIV-1 Env of isolate MGRM-D-016 (subtype D) (HIV-1)
[26] = molecular target: HIV-1 Env of isolate MGRM-AE-002 (subtype AE) (HIV-1)
[27] = molecular target: HIV-1 Env of isolate MGRM-D-002 (subtype D) (HIV-1)
[28] = molecular target: HIV-1 Env of isolate 92WR026 (subtype A) (HIV-1)
[29] = molecular target: HIV-1 Env of isolate 92WR020 (subtype A) (HIV-1)
[30] = molecular target: HIV-1 Env of isolate MGRM-F1-022 (subtype F) (HIV-1)
[31] = molecular target: HIV-1 Env of isolate MGRM-F1-021 (subtype F) (HIV-1)
[32] = molecular target: HIV-1 Env of isolate MGRM-D-013 (subtype D) (HIV-1)
[33] = molecular target: HIV-1 Env of isolate 94UG103 (subtype A) (HIV-1)
[34] = molecular target: HIV-1 Env of isolate MGRM-F1-012 (subtype F) (HIV-1)
[35] = molecular target: HIV-1 Env of isolate MGRM-F1-006 (subtype F) (HIV-1)
[36] = molecular target: HIV-1 Env of isolate MGRM-AE-001 (subtype AE) (HIV-1)
[37] = molecular target: HIV-1 Env of isolate MGRM-D-001 (subtype D) (HIV-1)
[38] = molecular target: HIV-1 Env of isolate MGRM-F1-017 (subtype F) (HIV-1)
[39] = molecular target: HIV-1 Env of isolate 94 KE 105 (subtype AC) (HIV-1)
[40] = molecular target: HIV-1 Env of isolate MGRM-AE-007 (subtype AE) (HIV-1)
[41] = molecular target: HIV-1 Env of isolate MGRM-D-005 (subtype D) (HIV-1)
[42] = molecular target: HIV-1 Env of isolate 92UG037 (subtype A) (HIV-1)
[43] = molecular target: HIV-1 Env of isolate MGRM-D-019 (subtype D) (HIV-1)
[44] = molecular target: HIV-1 Env of isolate MGRM-F1-013 (subtype F) (HIV-1)
[45] = molecular target: HIV-1 Env of isolate VLGCA1 (subtype A) (HIV-1)
[46] = molecular target: HIV-1 Env of isolate MGRM-AE-004 (subtype AE) (HIV-1)
[47] = molecular target: HIV-1 Env of isolate MGRM-F1-023 (subtype F) (HIV-1)
[48] = molecular target: HIV-1 Env of isolate MGRM-D-026 (subtype D) (HIV-1)
[49] = molecular target: HIV-1 Env of isolate MGRM-F1-018 (subtype F) (HIV-1)
[50] = molecular target: HIV-1 Env of isolate 93WR029 (subtype A) (HIV-1)
[51] = molecular target: HIV-1 Env of isolate 92WR009 (subtype A) (HIV-1)
[52] = molecular target: HIV-1 Env of isolate MGRM-F1-004 (subtype F) (HIV-1)
[53] = molecular target: HIV-1 Env of isolate MGRM-AE-008 (subtype AE) (HIV-1)
[54] = molecular target: HIV-1 Env of isolate 92TH021 (subtype AE) (HIV-1)
[55] = molecular target: HIV-1 Env of isolate 93UG077 (subtype A) (HIV-1)
[56] = molecular target: HIV-1 Env of isolate MGRM-F1-008 (subtype F) (HIV-1)
[57] = molecular target: HIV-1 Env of isolate MGRM-D-014 (subtype D) (HIV-1)
[58] = molecular target: HIV-1 Env of isolate MGRM-D-022 (subtype D) (HIV-1)

PGT-142 (4995_E20) (antibody), sequence (VH): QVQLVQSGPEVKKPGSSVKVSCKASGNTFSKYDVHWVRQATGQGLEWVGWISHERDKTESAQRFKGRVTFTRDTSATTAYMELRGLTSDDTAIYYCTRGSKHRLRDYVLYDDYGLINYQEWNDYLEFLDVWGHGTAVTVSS
PGT-142 (4995_E20) (antibody), sequence (VL): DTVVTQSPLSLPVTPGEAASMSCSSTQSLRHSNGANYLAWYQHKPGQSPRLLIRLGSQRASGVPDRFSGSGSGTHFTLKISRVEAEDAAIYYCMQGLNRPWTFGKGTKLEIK
PGT-141 (4964_G22; 4993_K13) (antibody), sequence (VH): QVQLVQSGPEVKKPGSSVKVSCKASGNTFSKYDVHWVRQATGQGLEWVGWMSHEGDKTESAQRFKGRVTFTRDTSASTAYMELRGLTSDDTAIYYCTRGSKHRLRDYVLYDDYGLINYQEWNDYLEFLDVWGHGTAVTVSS
PGT-141 (4964_G22; 4993_K13) (antibody), sequence (VL): as the sequence (VL) above

Substance: PGT-141 (4964_G22; 4993_K13) (antibody)
- IC50 (pseudovirus neutralization) [1]: > 50 µg/mL
- IC50 (pseudovirus neutralization) [2]: > 50 µg/mL
- IC50 (pseudovirus neutralization) [3]: > 50 µg/mL
- IC50 (pseudovirus neutralization) [4]: 0.175 µg/mL
- IC50 (pseudovirus neutralization) [5]: > 50 µg/mL
- IC50 (pseudovirus neutralization) [6]: > 50 µg/mL
- IC50 (pseudovirus neutralization) [7]: 0.001 µg/mL
- IC50 (pseudovirus neutralization) [8]: > 50 µg/mL
- IC50 (pseudovirus neutralization) [9]: > 50 µg/mL
- IC50 (pseudovirus neutralization) [10]: > 50 µg/mL
- IC50 (pseudovirus neutralization) [11]: > 50 µg/mL
- IC50 (pseudovirus neutralization) [12]: 0.093 µg/mL
- IC50 (pseudovirus neutralization) [13]: > 50 µg/mL
- IC50 (pseudovirus neutralization) [14]: > 50 µg/mL
- IC50 (pseudovirus neutralization) [15]: > 50 µg/mL
- IC50 (pseudovirus neutralization) [16]: 0.057 µg/mL
- IC50 (pseudovirus neutralization) [17]: > 50 µg/mL
- IC50 (pseudovirus neutralization) [18]: 1.15 µg/mL
- IC50 (pseudovirus neutralization) [19]: > 50 µg/mL
- IC50 (pseudovirus neutralization) [20]: > 50 µg/mL
- IC50 (pseudovirus neutralization) [21]: > 50 µg/mL
- IC50 (pseudovirus neutralization) [22]: > 50 µg/mL
- IC50 (pseudovirus neutralization) [23]: > 50 µg/mL
- IC50 (pseudovirus neutralization) [24]: 0.371 µg/mL
- IC50 (pseudovirus neutralization) [25]: > 50 µg/mL
- IC50 (pseudovirus neutralization) [26]: > 50 µg/mL
- IC50 (pseudovirus neutralization) [27]: > 50 µg/mL
- IC50 (pseudovirus neutralization) [28]: 1.78 µg/mL
- IC50 (pseudovirus neutralization) [29]: > 50 µg/mL
- IC50 (pseudovirus neutralization) [30]: 0.114 µg/mL
- IC50 (pseudovirus neutralization) [31]: > 50 µg/mL
- IC50 (pseudovirus neutralization) [32]: 0.179 µg/mL
- IC50 (pseudovirus neutralization) [33]: > 50 µg/mL
- IC50 (pseudovirus neutralization) [34]: > 50 µg/mL
- IC50 (pseudovirus neutralization) [35]: 8.99 µg/mL
- IC50 (pseudovirus neutralization) [36]: > 50 µg/mL
- IC50 (pseudovirus neutralization) [37]: > 50 µg/mL
- IC50 (pseudovirus neutralization) [38]: 30.8 µg/mL
- IC50 (pseudovirus neutralization) [39]: 0.204 µg/mL
- IC50 (pseudovirus neutralization) [40]: 33.1 µg/mL
- IC50 (pseudovirus neutralization) [41]: 5.15 µg/mL
- IC50 (pseudovirus neutralization) [42]: 1.28 µg/mL
- IC50 (pseudovirus neutralization) [43]: 1.66 µg/mL
- IC50 (pseudovirus neutralization) [44]: 0.043 µg/mL
- IC50 (pseudovirus neutralization) [45]: 2.07 µg/mL
- IC50 (pseudovirus neutralization) [46]: 0.001 µg/mL
- IC50 (pseudovirus neutralization) [47]: 0.307 µg/mL
- IC50 (pseudovirus neutralization) [48]: 32.5 µg/mL
- IC50 (pseudovirus neutralization) [49]: 0.785 µg/mL
- IC50 (pseudovirus neutralization) [50]: 0.019 µg/mL
- IC50 (pseudovirus neutralization) [51]: 0.022 µg/mL
- IC50 (pseudovirus neutralization) [52]: 0.021 µg/mL
- IC50 (pseudovirus neutralization) [53]: 0.101 µg/mL
- IC50 (pseudovirus neutralization) [54]: 0.001 µg/mL
- IC50 (pseudovirus neutralization) [55]: > 50 µg/mL
- IC50 (pseudovirus neutralization) [56]: 0.193 µg/mL
- IC50 (pseudovirus neutralization) [57]: 0.01 µg/mL
- IC50 (pseudovirus neutralization) [58]: > 50 µg/mL

Substance: PGT-142 (4995_E20) (antibody)
- IC50 (pseudovirus neutralization) [1]: > 50 µg/mL
- IC50 (pseudovirus neutralization) [2]: > 50 µg/mL
- IC50 (pseudovirus neutralization) [3]: > 50 µg/mL
- IC50 (pseudovirus neutralization) [4]: 0.069 µg/mL
- IC50 (pseudovirus neutralization) [5]: > 50 µg/mL
- IC50 (pseudovirus neutralization) [6]: > 50 µg/mL
- IC50 (pseudovirus neutralization) [7]: 0.001 µg/mL
- IC50 (pseudovirus neutralization) [8]: > 50 µg/mL
- IC50 (pseudovirus neutralization) [9]: > 50 µg/mL
- IC50 (pseudovirus neutralization) [10]: > 50 µg/mL
- IC50 (pseudovirus neutralization) [11]: > 50 µg/mL
- IC50 (pseudovirus neutralization) [12]: 0.05 µg/mL
- IC50 (pseudovirus neutralization) [13]: > 50 µg/mL
- IC50 (pseudovirus neutralization) [14]: > 50 µg/mL
- IC50 (pseudovirus neutralization) [15]: > 50 µg/mL
- IC50 (pseudovirus neutralization) [16]: 0.192 µg/mL
- IC50 (pseudovirus neutralization) [17]: > 50 µg/mL
- IC50 (pseudovirus neutralization) [18]: 0.824 µg/mL
- IC50 (pseudovirus neutralization) [19]: > 50 µg/mL
- IC50 (pseudovirus neutralization) [20]: > 50 µg/mL
- IC50 (pseudovirus neutralization) [21]: > 50 µg/mL
- IC50 (pseudovirus neutralization) [22]: > 50 µg/mL
- IC50 (pseudovirus neutralization) [23]: > 50 µg/mL
- IC50 (pseudovirus neutralization) [24]: 0.174 µg/mL
- IC50 (pseudovirus neutralization) [25]: > 50 µg/mL
- IC50 (pseudovirus neutralization) [26]: > 50 µg/mL
- IC50 (pseudovirus neutralization) [27]: > 50 µg/mL
- IC50 (pseudovirus neutralization) [28]: 1.78 µg/mL
- IC50 (pseudovirus neutralization) [29]: 31.5 µg/mL
- IC50 (pseudovirus neutralization) [30]: 0.04 µg/mL
- IC50 (pseudovirus neutralization) [31]: > 50 µg/mL
- IC50 (pseudovirus neutralization) [32]: 0.221 µg/mL
- IC50 (pseudovirus neutralization) [33]: > 50 µg/mL
- IC50 (pseudovirus neutralization) [34]: > 50 µg/mL
- IC50 (pseudovirus neutralization) [35]: 12.9 µg/mL
- IC50 (pseudovirus neutralization) [36]: > 50 µg/mL
- IC50 (pseudovirus neutralization) [37]: > 50 µg/mL
- IC50 (pseudovirus neutralization) [38]: 23.5 µg/mL
- IC50 (pseudovirus neutralization) [39]: 0.19 µg/mL
- IC50 (pseudovirus neutralization) [40]: 6.7 µg/mL
- IC50 (pseudovirus neutralization) [41]: 1.15 µg/mL
- IC50 (pseudovirus neutralization) [42]: 0.557 µg/mL
- IC50 (pseudovirus neutralization) [43]: 0.155 µg/mL
- IC50 (pseudovirus neutralization) [44]: 0.023 µg/mL
- IC50 (pseudovirus neutralization) [45]: 2.75 µg/mL
- IC50 (pseudovirus neutralization) [46]: 0.001 µg/mL
- IC50 (pseudovirus neutralization) [47]: 0.602 µg/mL
- IC50 (pseudovirus neutralization) [48]: 12.5 µg/mL
- IC50 (pseudovirus neutralization) [49]: 0.404 µg/mL
- IC50 (pseudovirus neutralization) [50]: 0.014 µg/mL
- IC50 (pseudovirus neutralization) [51]: 0.006 µg/mL
- IC50 (pseudovirus neutralization) [52]: 0.013 µg/mL
- IC50 (pseudovirus neutralization) [53]: 0.08 µg/mL
- IC50 (pseudovirus neutralization) [54]: 0.002 µg/mL
- IC50 (pseudovirus neutralization) [55]: > 50 µg/mL
- IC50 (pseudovirus neutralization) [56]: 0.124 µg/mL
- IC50 (pseudovirus neutralization) [57]: 0.005 µg/mL
- IC50 (pseudovirus neutralization) [58]: > 50 µg/mL
